Results on six molecules are retold here after publication PMC6193622, “Identification of UHRF2 as a novel DNA interstrand crosslink sensor protein” (PLoS Genetics, 2018).

The labels stand for the following.
B1: 6xHis-UHRF2 purified from Sf9 cells (natural protein, human, UniProt Q96PU4 1-802, looked up)
chain: MWIQVRTIDGSKTCTIEDVSRKATIEELRERVWALFDVRPECQRLFYRGKQLENGYTLFDYDVGLNDIIQLLVRPDPDHLPGTSTQIEAKPCSNSPPKVKKAPRVGPSNQPSTSARARLIDPGFGIYKVNELVDARDVGLGAWFEAHIHSVTRASDGQSRGKTPLKNGSSCKRTNGNIKHKSKENTNKLDSVPSTSNSDCVAADEDVIYHIQYDEYPESGTLEMNVKDLRPRARTILKWNELNVGDVVMVNYNVESPGQRGFWFDAEITTLKTISRTKKELRVKIFLGGSEGTLNDCKIISVDEIFKIERPGAHPLSFADGKFLRRNDPECDLCGGDPEKKCHSCSCRVCGGKHEPNMQLLCDECNVAYHIYCLNPPLDKVPEEEYWYCPSCKTDSSEVVKAGERLKMSKKKAKMPSASTESRRDWGRGMACVGRTRECTIVPSNHYGPIPGIPVGSTWRFRVQVSEAGVHRPHVGGIHGRSNDGAYSLVLAGGFADEVDRGDEFTYTGSGGKNLAGNKRIGAPSADQTLTNMNRALALNCDAPLDDKIGAESRNWRAGKPVRVIRSFKGRKISKYAPEEGNRYDGIYKVVKYWPEISSSHGFLVWRYLLRRDDVEPAPWTSEGIERSRRLCLRLQYPAGYPSDKEGKKPKGQSKKQPSGTTKRPISDDDCPSASKVYKASDSAEAIEAFQLTPQQQHLIREDCQNQKLWDEVLSHLVEGPNFLKKLEQSFMCVCCQELVYQPVTTECFHNVCKDCLQRSFKAQVFSCPACRHDLGQNYIMIPNEILQTLLDLFFPGYSKGR
notes: UHRF2, human; also called 6xHis-tagged UHRF2; source: Sf9, purified
B2: Flag-UHRF1 with the UBL domain deleted (natural protein, human, UniProt Q96T88-2 1-806, looked up)
chain: MGVFAVPPLSSDTLPHSTKERDSELSDTDSGCCLGQSESDKSSTHGEAAAETDSRPADEDMWDETELGLYKVNEYVDARDTNMGAWFEAQVVRVTRKAPSRDEPCSSTSRPALEEDVIYHVKYDDYPENGVVQMNSRDVRARARTIIKWQDLEVGQVVMLNYNPDNPKERGFWYDAEISRKRETRTARELYANVVLGDDSLNDCRIIFVDEVFKIERPGEGSPMVDNPMRRKSGPSCKHCKDDVNRLCRVCACHLCGGRQDPDKQLMCDECDMAFHIYCLDPPLSSVPSEDEWYCPECRNDASEVVLAGERLRESKKKAKMASATSSSQRDWGKGMACVGRTKECTIVPSNHYGPIPGIPVGTMWRFRVQVSESGVHRPHVAGIHGRSNDGAYSLVLAGGYEDDVDHGNFFTYTGSGGRDLSGNKRTAEQSCDQKLTNTNRALALNCFAPINDQEGAEAKDWRSGKPVRVVRNVKGGKNSKYAPAEGNRYDGIYKVVKYWPEKGKSGFLVWRYLLRRDDDEPGPWTKEGKDRIKKLGLTMQYPEGYLEALANREREKENSKREEEEQQEGGFASPRTGKGKWKRKSAGGGPSRAGSPRRTSKKTKVEPYSLTAQQSSLIREDKSNAKLWNEVLASLKDRPASGSPFQLFLSKVEETFQCICCQELVFRPITTVCQHNVCKDCLDRSFRAQVFSCPACRYDLGRSYAMQVNQPLQTVLNQLFPGYGNGR
notes: UHRF1, human, amino acids 14-91 (UBL domain) deleted; also called UHRF1 UBL deletion mutant; source: Sf9, purified
B3: Flag-UHRF1 with the RING domain deleted (natural protein, human, UniProt Q96T88-2 1-806, looked up)
chain: MGVFAVPPLSSDTMWIQVRTMDGRQTHTVDSLSRLTKVEELRRKIQELFHVEPGLQRLFYRGKQMEDGHTLFDYEVRLNDTIQLLVRQSLVLPHSTKERDSELSDTDSGCCLGQSESDKSSTHGEAAAETDSRPADEDMWDETELGLYKVNEYVDARDTNMGAWFEAQVVRVTRKAPSRDEPCSSTSRPALEEDVIYHVKYDDYPENGVVQMNSRDVRARARTIIKWQDLEVGQVVMLNYNPDNPKERGFWYDAEISRKRETRTARELYANVVLGDDSLNDCRIIFVDEVFKIERPGEGSPMVDNPMRRKSGPSCKHCKDDVNRLCRVCACHLCGGRQDPDKQLMCDECDMAFHIYCLDPPLSSVPSEDEWYCPECRNDASEVVLAGERLRESKKKAKMASATSSSQRDWGKGMACVGRTKECTIVPSNHYGPIPGIPVGTMWRFRVQVSESGVHRPHVAGIHGRSNDGAYSLVLAGGYEDDVDHGNFFTYTGSGGRDLSGNKRTAEQSCDQKLTNTNRALALNCFAPINDQEGAEAKDWRSGKPVRVVRNVKGGKNSKYAPAEGNRYDGIYKVVKYWPEKGKSGFLVWRYLLRRDDDEPGPWTKEGKDRIKKLGLTMQYPEGYLEALANREREKENSKREEEEQQEGGFASPRTGKGKWKRKSAGGGPSRAGSPRRTSKKTKVEPYSLTAQQSSLIREDKSNAKLWNEVLASLKDRPASGSPFQL
notes: UHRF1, human, amino acids 727-806 (RING domain) deleted; also called UHRF1 RING deletion mutant; source: Sf9, purified
B4: Flag-UHRF1 with the PHD domain deleted (natural protein, human, UniProt Q96T88-2 1-806, looked up)
chain: MGVFAVPPLSSDTMWIQVRTMDGRQTHTVDSLSRLTKVEELRRKIQELFHVEPGLQRLFYRGKQMEDGHTLFDYEVRLNDTIQLLVRQSLVLPHSTKERDSELSDTDSGCCLGQSESDKSSTHGEAAAETDSRPADEDMWDETELGLYKVNEYVDARDTNMGAWFEAQVVRVTRKAPSRDEPCSSTSRPALEEDVIYHVKYDDYPENGVVQMNSRDVRARARTIIKWQDLEVGQVVMLNYNPDNPKERGFWYDAEISRKRETRTARELYANVVLGDDSLNDCRIIFVDEVFKIERPGEGSPMVDNPMRRKSGPSCKHCKDDVASEVVLAGERLRESKKKAKMASATSSSQRDWGKGMACVGRTKECTIVPSNHYGPIPGIPVGTMWRFRVQVSESGVHRPHVAGIHGRSNDGAYSLVLAGGYEDDVDHGNFFTYTGSGGRDLSGNKRTAEQSCDQKLTNTNRALALNCFAPINDQEGAEAKDWRSGKPVRVVRNVKGGKNSKYAPAEGNRYDGIYKVVKYWPEKGKSGFLVWRYLLRRDDDEPGPWTKEGKDRIKKLGLTMQYPEGYLEALANREREKENSKREEEEQQEGGFASPRTGKGKWKRKSAGGGPSRAGSPRRTSKKTKVEPYSLTAQQSSLIREDKSNAKLWNEVLASLKDRPASGSPFQLFLSKVEETFQCICCQELVFRPITTVCQHNVCKDCLDRSFRAQVFSCPACRYDLGRSYAMQVNQPLQTVLNQLFPGYGNGR
notes: UHRF1, human, amino acids 323-379 (PHD domain) deleted; also called UHRF1 PHD deletion mutant; source: Sf9, purified
B5: Flag-UHRF1 wild type purified from Sf9 cells (natural protein, human, UniProt Q96T88-2 1-806, looked up)
chain: MGVFAVPPLSSDTMWIQVRTMDGRQTHTVDSLSRLTKVEELRRKIQELFHVEPGLQRLFYRGKQMEDGHTLFDYEVRLNDTIQLLVRQSLVLPHSTKERDSELSDTDSGCCLGQSESDKSSTHGEAAAETDSRPADEDMWDETELGLYKVNEYVDARDTNMGAWFEAQVVRVTRKAPSRDEPCSSTSRPALEEDVIYHVKYDDYPENGVVQMNSRDVRARARTIIKWQDLEVGQVVMLNYNPDNPKERGFWYDAEISRKRETRTARELYANVVLGDDSLNDCRIIFVDEVFKIERPGEGSPMVDNPMRRKSGPSCKHCKDDVNRLCRVCACHLCGGRQDPDKQLMCDECDMAFHIYCLDPPLSSVPSEDEWYCPECRNDASEVVLAGERLRESKKKAKMASATSSSQRDWGKGMACVGRTKECTIVPSNHYGPIPGIPVGTMWRFRVQVSESGVHRPHVAGIHGRSNDGAYSLVLAGGYEDDVDHGNFFTYTGSGGRDLSGNKRTAEQSCDQKLTNTNRALALNCFAPINDQEGAEAKDWRSGKPVRVVRNVKGGKNSKYAPAEGNRYDGIYKVVKYWPEKGKSGFLVWRYLLRRDDDEPGPWTKEGKDRIKKLGLTMQYPEGYLEALANREREKENSKREEEEQQEGGFASPRTGKGKWKRKSAGGGPSRAGSPRRTSKKTKVEPYSLTAQQSSLIREDKSNAKLWNEVLASLKDRPASGSPFQLFLSKVEETFQCICCQELVFRPITTVCQHNVCKDCLDRSFRAQVFSCPACRYDLGRSYAMQVNQPLQTVLNQLFPGYGNGR
notes: UHRF1, human, wild type; the deletion limits printed for its mutants run to residue 806, so the 806-residue isoform is meant; also called wild type UHRF1; Flag-tagged wild type UHRF1; source: Sf9, purified
B6: Flag-UHRF1 with the TTD domain deleted (natural protein, human, UniProt Q96T88-2 1-806, looked up)
chain: MGVFAVPPLSSDTMWIQVRTMDGRQTHTVDSLSRLTKVEELRRKIQELFHVEPGLQRLFYRGKQMEDGHTLFDYEVRLNDTIQLLVRQSLVLPHSTKERDSELSDTDSGCCLGQSESDKSSTHGEAAAETDSRPADEDMWDETELGEGSPMVDNPMRRKSGPSCKHCKDDVNRLCRVCACHLCGGRQDPDKQLMCDECDMAFHIYCLDPPLSSVPSEDEWYCPECRNDASEVVLAGERLRESKKKAKMASATSSSQRDWGKGMACVGRTKECTIVPSNHYGPIPGIPVGTMWRFRVQVSESGVHRPHVAGIHGRSNDGAYSLVLAGGYEDDVDHGNFFTYTGSGGRDLSGNKRTAEQSCDQKLTNTNRALALNCFAPINDQEGAEAKDWRSGKPVRVVRNVKGGKNSKYAPAEGNRYDGIYKVVKYWPEKGKSGFLVWRYLLRRDDDEPGPWTKEGKDRIKKLGLTMQYPEGYLEALANREREKENSKREEEEQQEGGFASPRTGKGKWKRKSAGGGPSRAGSPRRTSKKTKVEPYSLTAQQSSLIREDKSNAKLWNEVLASLKDRPASGSPFQLFLSKVEETFQCICCQELVFRPITTVCQHNVCKDCLDRSFRAQVFSCPACRYDLGRSYAMQVNQPLQTVLNQLFPGYGNGR
notes: UHRF1, human, amino acids 146-296 (TTD domain) deleted; also called UHRF1 TTD deletion mutant; source: Sf9, purified

The target in the first experiment is B5. The experiment in a line: co-IP; in vitro binding assay of purified recombinant proteins from Sf9 cells; His-UHRF2 was immunoprecipitated, immunoblotting. To be noted: both partners purified. Background: Immunoblotting shows a protein as a band on a membrane.
For B1, the binding result is given as “binds”.

In a further experiment the target is T1, Flag-HA-FANCD2 purified from Sf9 cells (human, UniProt Q9BXW9 1-1451).
T1 construct: FANCD2, human, full-length form; also called Flag-HA-tagged FANCD2; source: Sf9, purified (M2 anti-Flag agarose, Flag peptide elution); not shown: Flag, N-terminal, kept; HA, N-terminal, kept
T1 sequence (Q9BXW9 whole entry): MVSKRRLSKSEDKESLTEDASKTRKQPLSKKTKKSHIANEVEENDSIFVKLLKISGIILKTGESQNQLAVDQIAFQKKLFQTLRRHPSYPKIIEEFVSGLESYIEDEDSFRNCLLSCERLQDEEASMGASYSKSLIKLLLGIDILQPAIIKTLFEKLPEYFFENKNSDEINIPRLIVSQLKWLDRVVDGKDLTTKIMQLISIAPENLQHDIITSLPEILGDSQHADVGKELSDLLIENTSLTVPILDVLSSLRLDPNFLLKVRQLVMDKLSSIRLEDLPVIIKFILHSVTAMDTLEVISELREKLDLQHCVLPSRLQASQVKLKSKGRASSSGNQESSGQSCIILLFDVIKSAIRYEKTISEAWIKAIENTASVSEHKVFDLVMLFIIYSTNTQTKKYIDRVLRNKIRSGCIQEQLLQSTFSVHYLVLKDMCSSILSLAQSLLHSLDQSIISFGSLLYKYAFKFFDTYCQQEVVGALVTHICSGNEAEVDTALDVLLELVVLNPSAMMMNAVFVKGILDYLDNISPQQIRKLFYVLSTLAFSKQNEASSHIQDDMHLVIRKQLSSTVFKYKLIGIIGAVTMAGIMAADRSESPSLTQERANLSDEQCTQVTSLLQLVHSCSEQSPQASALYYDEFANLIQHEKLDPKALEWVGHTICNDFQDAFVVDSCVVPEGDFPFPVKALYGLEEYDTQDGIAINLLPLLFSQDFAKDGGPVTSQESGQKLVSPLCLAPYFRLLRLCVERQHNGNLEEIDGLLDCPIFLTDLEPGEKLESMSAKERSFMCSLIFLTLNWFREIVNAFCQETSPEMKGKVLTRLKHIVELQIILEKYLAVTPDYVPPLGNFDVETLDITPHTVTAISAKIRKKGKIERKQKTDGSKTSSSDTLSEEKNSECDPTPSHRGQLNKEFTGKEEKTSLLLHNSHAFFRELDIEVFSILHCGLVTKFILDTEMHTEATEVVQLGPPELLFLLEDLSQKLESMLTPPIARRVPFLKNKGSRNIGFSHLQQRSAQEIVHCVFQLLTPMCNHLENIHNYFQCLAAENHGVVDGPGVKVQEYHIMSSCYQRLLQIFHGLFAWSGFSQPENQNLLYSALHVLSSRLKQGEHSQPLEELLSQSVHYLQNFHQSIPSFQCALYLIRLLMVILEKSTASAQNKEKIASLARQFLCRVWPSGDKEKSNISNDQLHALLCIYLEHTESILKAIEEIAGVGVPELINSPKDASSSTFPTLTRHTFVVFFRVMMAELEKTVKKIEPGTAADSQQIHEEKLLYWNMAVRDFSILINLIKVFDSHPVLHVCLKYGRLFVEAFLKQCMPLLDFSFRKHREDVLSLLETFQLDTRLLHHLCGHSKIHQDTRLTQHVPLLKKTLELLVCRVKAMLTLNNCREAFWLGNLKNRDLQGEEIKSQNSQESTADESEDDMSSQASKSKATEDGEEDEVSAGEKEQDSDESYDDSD
Kind of experiment: co-IP; in vitro binding assay: 1μg of each protein with 10μg BSA in 20mM Tris-HCl pH 8.0, 150mM KCl, 10% glycerol, 2mM β-ME, 10μl, 37°C 1h; HA-FANCD2 immunoprecipitated on protein A sepharose with anti-HA IgG at 4°C, washed with 0.1% Tween-20, eluted with HA peptide; immunoblotting. To be noted: both partners purified.
For B2, the binding result is reported as “binds”.
B3: the binding result is reported as “binds”.
Regarding B4, the binding result is recorded as “binds”.
Same read-out and setting: the result for B5 reads “binds”; that for B6, “binds”; that for B1, “binds”.
